Blank lines part the entries; values can stand above or below the substance they belong to.
Legend:
[1] = target: taxol-stabilized microtubules made from PC tubulin; test: microtubule pelleting assay
[2] = target: taxol-stabilized microtubules made from PC tubulin; test: microtubule pelleting assay, gel densitometry, 30 µM polymerized tubulin
[3] = target: taxol-stabilized microtubules made from PC tubulin; test: microtubule pelleting assay, microtubules from 10 µM tubulin with 20 µM taxol
[4] = target: taxol-stabilized microtubules made from PC tubulin; test: microtubule pelleting assay, after 35 kDal kinase, against unphosphorylated htau23
[5] = target: taxol-stabilized microtubules made from PC tubulin; test: microtubule pelleting assay, after 35 kDal kinase
[6] = target: taxol-stabilized microtubules made from PC tubulin; test: microtubule pelleting assay, brain extract phosphorylation

- fold reduction in binding capacity against unphosphorylated htau34 [1]: 3 fold
Substance: htau34 phosphorylated with the brain extract kinase activity (24 hours) (from UniProt P10636 1-412)

- fold decrease in stoichiometry upon phosphorylation [1]: 2 fold
Substance: S404-A mutant of htau34 after 90 min of phosphorylation with the brain extract kinase activity (from UniProt P10636 1-412)

- Kd [2]: 1 to 2 µM
Substance: bacterially expressed human tau isoform htau34, unphosphorylated (from UniProt P10636 1-412)

- fold decrease in stoichiometry upon phosphorylation [1]: 3 fold
Substance: htau34 phosphorylated for 90 min with the brain extract kinase activity (stage 1) (from UniProt P10636 1-412)

- stoichiometry at saturation (tau per tubulin dimer) (per tubulin dimer) [3]: 0.6
Substance: htau23 phosphorylated with GSK3 (from UniProt P10636 1-352)

- reduction in stoichiometry upon phosphorylation (Dn) (tau/tubulin dimer) [4]: 0.05
- Kd [5]: 11.6 µM
- stoichiometry n (tau/tubulin dimer) (tau/tubulin dimer) [5]: 0.44
Substance: htau23 mutant Ser262-Ala phosphorylated by the 35 kDal kinase (from UniProt P10636 1-352)

- Dn (difference in stoichiometry upon phosphorylation) (tau/tubulin dimer) [6]: 0.33
- Kd [2]: 4.9 µM
- stoichiometry n (tau/tubulin dimer) (tau/tubulin dimer) [2]: 0.16
Substance: htau23 phosphorylated with the brain extract kinase activity (full, stage 3, 24 hours) (from UniProt P10636 1-352)

- Dn (difference in stoichiometry upon phosphorylation) (tau/tubulin dimer) [6]: 0.04
- Kd [2]: 5.3 µM
- stoichiometry n (tau/tubulin dimer) (tau/tubulin dimer) [2]: 0.45
Substance: htau23 mutant Ser262-Ala phosphorylated with brain extract (from UniProt P10636 1-352)

- reduction in stoichiometry upon phosphorylation (Dn) (tau/tubulin dimer) [4]: 0.28
- Kd [5]: 8.8 µM
- stoichiometry n (tau/tubulin dimer) (tau/tubulin dimer) [5]: 0.21
Substance: htau23 phosphorylated by the 35 kDal kinase (from UniProt P10636 1-352)
